Measurements as given in US20240392004A1 (IMMUNOWAKE, published 2024).

T1: IFN-γ receptor (IFNGR1 and IFNGR2) (UniProt P15260 18-489; P38484 22-337, limits assumed)
T1 sequence (looked up) 1: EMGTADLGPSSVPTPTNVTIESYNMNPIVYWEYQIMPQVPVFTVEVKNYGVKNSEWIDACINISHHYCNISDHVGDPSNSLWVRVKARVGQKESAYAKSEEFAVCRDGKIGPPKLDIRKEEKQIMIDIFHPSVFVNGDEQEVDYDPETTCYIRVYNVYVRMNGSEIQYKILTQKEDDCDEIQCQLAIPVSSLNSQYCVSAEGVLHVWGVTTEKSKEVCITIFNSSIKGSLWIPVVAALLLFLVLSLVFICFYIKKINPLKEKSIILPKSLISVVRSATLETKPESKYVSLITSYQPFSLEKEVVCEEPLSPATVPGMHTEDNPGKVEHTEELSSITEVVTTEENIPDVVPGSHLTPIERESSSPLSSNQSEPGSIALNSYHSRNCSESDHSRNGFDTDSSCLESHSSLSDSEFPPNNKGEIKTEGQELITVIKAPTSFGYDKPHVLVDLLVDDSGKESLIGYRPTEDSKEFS
T1 sequence (looked up) 2: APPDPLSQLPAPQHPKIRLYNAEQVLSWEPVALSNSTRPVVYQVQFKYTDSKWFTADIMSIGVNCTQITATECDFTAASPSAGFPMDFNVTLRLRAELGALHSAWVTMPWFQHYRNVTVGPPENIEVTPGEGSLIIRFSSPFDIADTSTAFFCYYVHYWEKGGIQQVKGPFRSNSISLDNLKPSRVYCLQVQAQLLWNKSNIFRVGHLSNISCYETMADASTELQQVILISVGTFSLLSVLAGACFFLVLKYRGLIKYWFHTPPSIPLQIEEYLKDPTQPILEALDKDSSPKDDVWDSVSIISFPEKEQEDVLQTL


Tests used:
Assay in all cases: cell-based or functional assay
[1] = molecular target: human PD-1 on cells (HEK-PD-1 reporter cells; activated PBMC) (human, UniProt Q15116 25-288)
[2] = molecular target: T1, IFN-γ receptor (IFNGR1 and IFNGR2)
[3] = molecular target: human IL-12 receptor complex (IL-12Rβ1 and IL-12Rβ2) (human, UniProt P42701 24-662; Q99665 24-862)
human IL-12 receptor complex (IL-12Rβ1 and IL-12Rβ2), sequence (Q99665 24-862, chain 2 of 2, other chains not shown): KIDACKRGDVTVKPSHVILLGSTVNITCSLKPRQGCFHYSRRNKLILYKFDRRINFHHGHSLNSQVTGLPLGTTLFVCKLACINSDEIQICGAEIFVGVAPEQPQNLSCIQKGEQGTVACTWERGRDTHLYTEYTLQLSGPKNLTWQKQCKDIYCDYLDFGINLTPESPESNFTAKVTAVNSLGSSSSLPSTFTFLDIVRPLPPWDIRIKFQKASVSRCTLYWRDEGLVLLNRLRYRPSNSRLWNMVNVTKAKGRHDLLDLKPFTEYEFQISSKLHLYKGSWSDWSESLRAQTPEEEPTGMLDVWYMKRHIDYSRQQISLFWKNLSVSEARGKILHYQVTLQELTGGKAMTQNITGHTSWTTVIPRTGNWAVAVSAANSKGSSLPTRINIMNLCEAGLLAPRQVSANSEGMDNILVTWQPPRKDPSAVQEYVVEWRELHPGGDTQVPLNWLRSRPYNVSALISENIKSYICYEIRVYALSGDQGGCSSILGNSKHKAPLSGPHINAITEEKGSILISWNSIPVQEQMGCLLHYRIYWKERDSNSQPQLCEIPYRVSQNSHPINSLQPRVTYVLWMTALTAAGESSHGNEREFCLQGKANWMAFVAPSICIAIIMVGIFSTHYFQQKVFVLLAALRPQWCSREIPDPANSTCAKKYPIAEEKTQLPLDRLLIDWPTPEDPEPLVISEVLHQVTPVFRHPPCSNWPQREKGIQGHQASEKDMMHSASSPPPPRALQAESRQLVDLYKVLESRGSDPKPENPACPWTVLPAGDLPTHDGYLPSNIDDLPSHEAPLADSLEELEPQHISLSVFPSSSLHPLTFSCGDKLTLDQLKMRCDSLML

human PD-1 on cells (HEK-PD-1 reporter cells; activated PBMC), sequence (Q15116 25-288): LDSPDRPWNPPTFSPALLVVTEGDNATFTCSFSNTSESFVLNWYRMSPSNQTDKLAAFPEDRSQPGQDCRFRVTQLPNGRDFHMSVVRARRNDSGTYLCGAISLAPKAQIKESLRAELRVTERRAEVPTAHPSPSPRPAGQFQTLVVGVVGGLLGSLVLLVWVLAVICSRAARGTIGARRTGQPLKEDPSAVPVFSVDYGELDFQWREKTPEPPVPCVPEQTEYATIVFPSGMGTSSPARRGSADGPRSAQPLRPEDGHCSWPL

Row | Binder | IFN-γ signal transduction, HEK-IFN-γ-PD-1 [1] [%] | IL-12 signal transduction, HEK-IL-12-PD-1 [1] [%] | IFN-γ signal transduction, HEK-IFN-γ [2] [%] | IL-12 signal transduction, HEK-IL-12 [3] [%]
1 | IL-12(E59A/F60A)/IFN-γ(A23V/A23V)/PD-L2(mut2)-Fc (Fc fusion) chain 1: LFTVTVPKELYIIEHGSNVTLECNFDTGSHVNLGAITAVLQKVENDTSPHRERATLLEEQLPLGKASFHIPQVQVRDEGQYQCIIIYGVAWDYKYLTLKVKASYRKINTHILKVPETDEVELTCQATGYPLAEVSWPNVSVPANTSHSRTPEGLYQVTSVLRLKPPPGRNFSCVFWNTHVRELTLASIDLQSQMEPRTHPTGGGGSGGGIWELKKDVYVVELDWYPDAPGEMVVLTCDTPEEDGITWTLDQSSEVLGSGKTLTIQVKAAGDAGQYTCHKGGEVLSHSLLLLHKKEDGIWSTDILKDQKEPKNKTFLRCEAKNYSGRFTCWWLTTISTDLTFSVKSSRGSSDPQGVTCGAATLSAERVRGDNKEYEYSVECQEDSACPAAEESLPIEVMVDAVHKLKYENYTSSFFIRDIIKPDPPKNLQLKPLKNSRQVEVSWEYPDTWSTPHSYFSLTFCVQVQGKSKREKKDRVFTDKTSATVICRKNASISVRAQDRYYSSSWSEWASVPCSGGGGSGGGSGGGGSRNLPVATPDPGMFPCLHHSQNLLRAVSNMLQKARQTLEFYPCTSEEIDHEDITKDKTSTVEACLPLELTKNESCLNSRETSFITNGSCLASRKTSFMMALCLSSIYEDLKMYQVEFKTMNAKLLMDPKRQIFLDQNMLAVIDELMQALNFNSETVPQKSSLEEPDFYKTKIKLCILLHAFRIRAVTIDRVMSYLNASGGGGSGGGDKTHTCPPCPAPEDEGGPSVFLFPPKPKDTLMISRTPEVTCVVVDVSHEDPEVKFNWYVDGVEVHNAKTKPREEQYNSTYRVVSVLTVLHQDWLNGKEYKCKVSNKALPAPIEKTISKAKGQPREPQVYVYPPSREEMTKNQVSLTCLVKGFYPSDIAVEWESNGQPENNYKTTPPVLDEDGSFALVSKLTVDKSRWQQGNVFSCSVMHEALHNHYTQKSLSLSPGK chain 2: LFTVTVPKELYIIEHGSNVTLECNFDTGSHVNLGAITAVLQKVENDTSPHRERATLLEEQLPLGKASFHIPQVQVRDEGQYQCIIIYGVAWDYKYLTLKVKASYRKINTHILKVPETDEVELTCQATGYPLAEVSWPNVSVPANTSHSRTPEGLYQVTSVLRLKPPPGRNFSCVFWNTHVRELTLASIDLQSQMEPRTHPTGGGSGQDPYVKEAENLKKYFNAGHSDVVDNGTLFLGILKNWKEESDRKIMQSQIVSFYFKLFKNFKDDQSIQKSVETIKEDMNVKFFNSNKKKRDDFEKLTNYSVTDLNVQRKAIHELIQVMAELSPAAKTGKRKRSQMLFRGGGGSGGGGSGGGGSGGGGSQDPYVKEAENLKKYFNAGHSDVVDNGTLFLGILKNWKEESDRKIMQSQIVSFYFKLFKNFKDDQSIQKSVETIKEDMNVKFFNSNKKKRDDFEKLTNYSVTDLNVQRKAIHELIQVMAELSPAAKTGKRKRSQMLFRGGGGGSGGGDKTHTCPPCPAPEKKGGPSVFLFPPKPKDTLMISRTPEVTCVVVDVSHEDPEVKFNWYVDGVEVHNAKTKPREEQYNSTYRVVSVLTVLHQDWLNGKEYKCKVSNKALPAPIEKTISKAKGQPREPQVYVLPPSREEMTKNQVSLLCLVKGFYPSDIAVEWESNGQPENRYMTWPPVLDSDGSFFLYSKLTVDKSRWQQGNVFSCSVMHEALHNHYTQKSLSLSPGK | 35 | 45 | < 0.1 | < 0.2
2 | IL-12(E59A/F60A)/IFN-γ(A23V/A23V)/PD-L1(mut7)-Fc (Fc fusion) chain 1: FTVTVPKDLYVVEYGSNMTIECKFPVEKQLDLAALQVYWMMEDKNIIQFVHGEEDLKVQHSSYRQRARLLKDQLSLGNAALQITDVKLQDAGVYTCLIAYGGADYKRITVKVNAPYNKINQRILVVDPVTSEHELTCQAEGYPKAEVIWTSSDHQVLSGKTTTTNSKREEKLFNVTSTLRINTTTNEIFYCTFRRLDPEENHTAELVIPELPLAHPPNERGGGGSGGGIWELKKDVYVVELDWYPDAPGEMVVLTCDTPEEDGITWTLDQSSEVLGSGKTLTIQVKAAGDAGQYTCHKGGEVLSHSLLLLHKKEDGIWSTDILKDQKEPKNKTFLRCEAKNYSGRFTCWWLTTISTDLTFSVKSSRGSSDPQGVTCGAATLSAERVRGDNKEYEYSVECQEDSACPAAEESLPIEVMVDAVHKLKYENYTSSFFIRDIIKPDPPKNLQLKPLKNSRQVEVSWEYPDTWSTPHSYFSLTFCVQVQGKSKREKKDRVFTDKTSATVICRKNASISVRAQDRYYSSSWSEWASVPCSGGGGSGGGSGGGGSRNLPVATPDPGMFPCLHHSQNLLRAVSNMLQKARQTLEFYPCTSEEIDHEDITKDKTSTVEACLPLELTKNESCLNSRETSFITNGSCLASRKTSFMMALCLSSIYEDLKMYQVEFKTMNAKLLMDPKRQIFLDQNMLAVIDELMQALNFNSETVPQKSSLEEPDFYKTKIKLCILLHAFRIRAVTIDRVMSYLNASGGGGSGGGDKTHTCPPCPAPEDEGGPSVFLFPPKPKDTLMISRTPEVTCVVVDVSHEDPEVKFNWYVDGVEVHNAKTKPREEQYNSTYRVVSVLTVLHQDWLNGKEYKCKVSNKALPAPIEKTISKAKGQPREPQVYVYPPSREEMTKNQVSLTCLVKGFYPSDIAVEWESNGQPENNYKTTPPVLDEDGSFALVSKLTVDKSRWQQGNVFSCSVMHEALHNHYTQKSLSLSPGK chain 2: FTVTVPKDLYVVEYGSNMTIECKFPVEKQLDLAALQVYWMMEDKNIIQFVHGEEDLKVQHSSYRQRARLLKDQLSLGNAALQITDVKLQDAGVYTCLIAYGGADYKRITVKVNAPYNKINQRILVVDPVTSEHELTCQAEGYPKAEVIWTSSDHQVLSGKTTTTNSKREEKLFNVTSTLRINTTTNEIFYCTFRRLDPEENHTAELVIPELPLAHPPNERGGGSGQDPYVKEAENLKKYFNAGHSDVVDNGTLFLGILKNWKEESDRKIMQSQIVSFYFKLFKNFKDDQSIQKSVETIKEDMNVKFFNSNKKKRDDFEKLTNYSVTDLNVQRKAIHELIQVMAELSPAAKTGKRKRSQMLFRGGGGSGGGGSGGGGSGGGGSQDPYVKEAENLKKYFNAGHSDVVDNGTLFLGILKNWKEESDRKIMQSQIVSFYFKLFKNFKDDQSIQKSVETIKEDMNVKFFNSNKKKRDDFEKLTNYSVTDLNVQRKAIHELIQVMAELSPAAKTGKRKRSQMLFRGGGGGSGGGDKTHTCPPCPAPEKKGGPSVFLFPPKPKDTLMISRTPEVTCVVVDVSHEDPEVKFNWYVDGVEVHNAKTKPREEQYNSTYRVVSVLTVLHQDWLNGKEYKCKVSNKALPAPIEKTISKAKGQPREPQVYVLPPSREEMTKNQVSLLCLVKGFYPSDIAVEWESNGQPENRYMTWPPVLDSDGSFFLYSKLTVDKSRWQQGNVFSCSVMHEALHNHYTQKSLSLSPGK | 45 | 43 | < 0.1 | < 0.2
